According to IntAct's records for PubMed 25761904:

B1: Dual oxidase 2 (Homo sapiens), Q9NRD8 (parent)
chain: MLRARPEALMLLGALLTGSLGPSGNQDALSLPWEVQRYDGWFNNLRHHERGAVGCRLQRRVPANYADGVYQALEEPQLPNPRRLSNAATRGIAGLPSLHNRTVLGVFFGYHVLSDVVSVETPGCPAEFLNIRIPPGDPVFDPDQRGDVVLPFQRSRWDPETGRSPSNPRDLANQVTGWLDGSAIYGSSHSWSDALRSFSGGQLASGPDPAFPRDSQNPLLMWAAPDPATGQNGPRGLYAFGAERGNREPFLQALGLLWFRYHNLWAQRLARQHPDWEDEELFQHARKRVIATYQNIAVYEWLPSFLQKTLPEYTGYRPFLDPSISPEFVVASEQFFSTMVPPGVYMRNASCHFRKVLNKGFQSSQALRVCNNYWIRENPNLNSTQEVNELLLGMASQISELEDNIVVEDLRDYWPGPGKFSRTDYVASSIQRGRDMGLPSYSQALLAFGLDIPRNWSDLNPNVDPQVLEATAALYNQDLSQLELLLGGLLESHGDPGPLFSAIVLDQFVRLRDGDRYWFENTRNGLFSKKEIEDIRNTTLRDVLVAVINIDPSALQPNVFVWHKGAPCPQPKQLTTDGLPQCAPLTVLDFFEGSSPGFAITIIALCCLPLVSLLLSGVVAYFRGREHKKLQKKLKESVKKEAAKDGVPAMEWPGPKERSSPIIIQLLSDRCLQVLNRHLTVLRVVQLQPLQQVNLILSNNRGCRTLLLKIPKEYDLVLLFSSEEERGAFVQQLWDFCVRWALGLHVAEMSEKELFRKAVTKQQRERILEIFFRHLFAQVLDINQADAGTLPLDSSQKVREALTCELSRAEFAESLGLKPQDMFVESMFSLADKDGNGYLSFREFLDILVVFMKGSPEDKSRLMFTMYDLDENGFLSKDEFFTMMRSFIEISNNCLSKAQLAEVVESMFRESGFQDKEELTWEDFHFMLRDHDSELRFTQLCVKGGGGGGNGIRDIFKQNISCRVSFITRTPGERSHPQGLGPPAPEAPELGGPGLKKRFGKKAAVPTPRLYTEALQEKMQRGFLAQKLQQYKRFVENYRRHIVCVAIFSAICVGVFADRAYYYGFASPPSDIAQTTLVGIILSRGTAASVSFMFSYILLTMCRNLITFLRETFLNRYVPFDAAVDFHRWIAMAAVVLAILHSAGHAVNVYIFSVSPLSLLACIFPNVFVNDGSKLPQKFYWWFFQTVPGMTGVLLLLVLAIMYVFASHHFRRRSFRGFWLTHHLYILLYALLIIHGSYALIQLPTFHIYFLVPAIIYGGDKLVSLSRKKVEISVVKAELLPSGVTYLQFQRPQGFEYKSGQWVRIACLALGTTEYHPFTLTSAPHEDTLSLHIRAVGPWTTRLREIYSSPKGNGCAGYPKLYLDGPFGEGHQEWHKFEVSVLVGGGIGVTPFASILKDLVFKSSLGSQMLCKKIYFIWVTRTQRQFEWLADIIQEVEENDHQDLVSVHIYVTQLAEKFDLRTTMLYICERHFQKVLNRSLFTGLRSITHFGRPPFEPFFNSLQEVHPQVRKIGVFSCGPPGMTKNVEKACQLVNRQDRAHFMHHYENF
partner: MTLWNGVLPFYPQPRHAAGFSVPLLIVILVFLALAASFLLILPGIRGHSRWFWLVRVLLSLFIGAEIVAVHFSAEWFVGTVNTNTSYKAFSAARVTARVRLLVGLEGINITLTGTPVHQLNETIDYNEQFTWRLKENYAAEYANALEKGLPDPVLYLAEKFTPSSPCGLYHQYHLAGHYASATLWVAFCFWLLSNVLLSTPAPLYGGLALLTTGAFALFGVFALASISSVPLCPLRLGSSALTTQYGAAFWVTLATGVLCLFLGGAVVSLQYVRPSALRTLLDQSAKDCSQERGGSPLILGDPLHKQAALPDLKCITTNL
B2: Dual oxidase maturation factor 2 (Homo sapiens), Q1HG44 (parent)
chain: B1 partner

Variants of: B1
Details: with doxa2_human DUOXA2, Q1HG44

effect of a mutation on the interaction	Variant
disrupting interaction strength	C124G

Variants of: B1
Details: with doxa2_human DUOXA2, Q1HG44
Remark: another data set of the same source

effect of a mutation on the interaction	Variant
decreasing interaction strength	C370G
disrupting interaction strength	C568G

More lines, now with the values behind:

Variant	effect of a mutation on the interaction
C582G	disrupting interaction strength
C351G	with no effect

Variants of: B1
Details: with doxa2_human DUOXA2, Q1HG44
Remark: another data set of the same source

effect of a mutation on the interaction	Variant
disrupting interaction strength	C1162G

Variants of: B2
Details: with duox2_human DUOX2, Q9NRD8

effect of a mutation on the interaction	Variant
disrupting interaction strength	MTLWNGVLPFYPQPRHAAGFSVPLLIVILVFLALAASFLLILPGIRGHSRWFWLVRVLLSLFIGAEIVAVHFSAEWFVGTVNTNTSYKAFSAARVTARVRLLVGLEGINITLTGTPVHQLNETIDYNEQFTWRLKENYAAEYANALEKGLPDPVLYLAEKFTPSSPGGLYHQYHLAGHYASATLWVAFCFWLLSNVLLSTPAPLYGGLALLTTGAFALFGVFALASISSVPLCPLRLGSSALTTQYGAAFWVTLATGVLCLFLGGAVVSLQYVRPSALRTLLDQSAKDCSQERGGSPLILGDPLHKQAALPDLKCITTNL [C167G]
disrupting interaction strength	MTLWNGVLPFYPQPRHAAGFSVPLLIVILVFLALAASFLLILPGIRGHSRWFWLVRVLLSLFIGAEIVAVHFSAEWFVGTVNTNTSYKAFSAARVTARVRLLVGLEGINITLTGTPVHQLNETIDYNEQFTWRLKENYAAEYANALEKGLPDPVLYLAEKFTPSSPCGLYHQYHLAGHYASATLWVAFCFWLLSNVLLSTPAPLYGGLALLTTGAFALFGVFALASISSVPLGPLRLGSSALTTQYGAAFWVTLATGVLCLFLGGAVVSLQYVRPSALRTLLDQSAKDCSQERGGSPLILGDPLHKQAALPDLKCITTNL [C233G]
